Data taken from article PMC3978073, “Flexibility of the Linker between the Domains of DNA Methyltransferase SsoII Revealed by Small-Angle X-Ray Scattering: Implications for Transcription Regulation in SsoII Restriction–Modification Syste”.

Target: T1, M.SsoII (C5-DNA methyltransferase SsoII) (Shigella sonnei, UniProt P34879 1-379)
T1 sequence: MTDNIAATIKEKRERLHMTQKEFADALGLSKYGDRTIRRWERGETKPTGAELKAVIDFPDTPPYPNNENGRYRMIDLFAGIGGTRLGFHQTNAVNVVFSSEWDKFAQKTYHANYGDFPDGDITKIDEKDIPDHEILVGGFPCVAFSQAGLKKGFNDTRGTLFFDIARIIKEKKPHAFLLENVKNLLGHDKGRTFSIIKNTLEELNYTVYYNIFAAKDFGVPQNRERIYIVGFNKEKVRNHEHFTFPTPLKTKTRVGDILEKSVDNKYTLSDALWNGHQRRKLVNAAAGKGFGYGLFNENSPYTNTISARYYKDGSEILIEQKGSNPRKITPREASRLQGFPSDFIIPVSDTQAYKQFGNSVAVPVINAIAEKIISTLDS
Assay: EMSA (native PAGE, EtBr and Coomassie stain); AdoHcy; M.SsoII:AdoHcy:DNA 1:2:1; Complex formation: 18 mM Tris-HCl, 136 mM NaCl, 3.5 mM beta-mercaptoethanol, 10% (w/v) glycerol, pH 8.0, with AdoHcy; temperature not stated; 7% native PAGE
Details: protein: recombinant; (HisTrap purified; tag not described); blunt

B1: 15met (dsDNA)
DNA 1: AGAGCCAGGAACCGA
DNA 2: TCGGTTCCTGGCTCT
  binding result: binds
